# Measurements from paper PMC5064372.
# How the values were obtained:
# [1] = molecular target: catalytically inactive mouse neutrophil elastase (Ser195Ala) with a C-terminal cysteine tag, fluorescently labelled (mouse); experiment: MST; AAT serially diluted (titrated), 5 nM fluorescently labelled inactive NE, in 7.5% plasma pool from individuals with low FEV1 (<=50%, n = 12); storage buffer (20 mM Na2HPO4, 300 mM NaCl pH 7.4) with Tween 20, 22 °C, 2 h incubation; global fit of four measurements
# [2] = molecular target: catalytically inactive mouse neutrophil elastase (Ser195Ala) with a C-terminal cysteine tag, fluorescently labelled (mouse); experiment: MST; AAT serially diluted (titrated), 5 nM fluorescently labelled inactive NE, in 7.5% plasma pool from individuals with high FEV1 (>=80%, n = 8); storage buffer (20 mM Na2HPO4, 300 mM NaCl pH 7.4) with Tween 20, 22 °C, 2 h incubation; global fit of four measurements
substance,measurement,setting,value
"recombinant Z-variant alpha-1-antitrypsin (Glu342Lys) with three stabilizing mutations (Met374Ile, Ser381Ala, Lys387Arg) on the M1(Ala213) background (from UniProt P01009 25-418) (natural protein)",Kd,[1],1.3 µM
same,Kd,[2],0.5 µM
